According to PMC4108505 (Journal of molecular biology, 2014):

What was measured:
Experiment in all cases: fluorescence polarisation
[1] = molecular target: T1, SipD^t (truncated form of SipD lacking the N-terminal alpha-helical hairpin, residues 101-343) (Salmonella, UniProt Q56026 101-343)
T1 sequence: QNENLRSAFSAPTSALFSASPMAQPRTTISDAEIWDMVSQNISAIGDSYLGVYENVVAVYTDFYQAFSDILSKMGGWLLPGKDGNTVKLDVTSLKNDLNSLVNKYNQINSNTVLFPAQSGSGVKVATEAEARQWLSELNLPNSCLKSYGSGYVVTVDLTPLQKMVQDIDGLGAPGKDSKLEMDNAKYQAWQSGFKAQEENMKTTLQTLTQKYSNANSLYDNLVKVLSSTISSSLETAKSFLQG

SipD^t V157K = molecular target: T2, SipD^t V157K (Salmonella, UniProt Q56026 101-343, V157K)
T2 sequence: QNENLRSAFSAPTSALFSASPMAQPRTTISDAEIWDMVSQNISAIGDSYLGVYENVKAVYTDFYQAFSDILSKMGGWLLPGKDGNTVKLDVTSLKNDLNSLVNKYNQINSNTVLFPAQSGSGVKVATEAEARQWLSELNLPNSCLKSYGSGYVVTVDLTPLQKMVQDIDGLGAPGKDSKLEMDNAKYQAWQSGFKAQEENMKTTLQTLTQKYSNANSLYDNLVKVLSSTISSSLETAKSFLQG

SipD^t S313E = molecular target: T3, SipD^t S313E (Salmonella, UniProt Q56026 101-343, S313E)
T3 sequence: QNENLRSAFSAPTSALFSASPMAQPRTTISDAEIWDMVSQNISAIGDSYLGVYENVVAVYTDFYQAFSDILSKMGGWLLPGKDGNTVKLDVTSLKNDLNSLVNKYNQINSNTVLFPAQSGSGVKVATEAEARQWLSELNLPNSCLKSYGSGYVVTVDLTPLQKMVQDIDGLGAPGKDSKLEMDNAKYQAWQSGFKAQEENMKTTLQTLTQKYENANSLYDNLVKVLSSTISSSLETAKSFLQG

SipD^t S148E = molecular target: T4, SipD^t S148E (Salmonella, UniProt Q56026 101-343, S148E)
T4 sequence: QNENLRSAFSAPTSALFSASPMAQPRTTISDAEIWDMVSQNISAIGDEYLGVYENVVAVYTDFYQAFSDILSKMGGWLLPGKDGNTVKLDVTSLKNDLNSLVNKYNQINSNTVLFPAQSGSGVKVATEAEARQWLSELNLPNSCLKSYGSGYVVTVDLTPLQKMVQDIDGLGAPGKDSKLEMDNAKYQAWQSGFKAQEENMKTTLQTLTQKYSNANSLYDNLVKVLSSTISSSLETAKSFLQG

SipD^t V323K = molecular target: T5, SipD^t V323K (Salmonella, UniProt Q56026 101-343, V323K)
T5 sequence: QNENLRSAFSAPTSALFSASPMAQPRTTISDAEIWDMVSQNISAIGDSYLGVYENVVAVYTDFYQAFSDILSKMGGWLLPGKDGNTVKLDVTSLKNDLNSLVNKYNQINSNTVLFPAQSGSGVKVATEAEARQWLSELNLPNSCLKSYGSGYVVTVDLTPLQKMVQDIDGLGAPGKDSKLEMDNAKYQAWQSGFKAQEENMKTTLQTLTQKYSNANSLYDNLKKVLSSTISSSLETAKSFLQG

SipD^t D320R = molecular target: T6, SipD^t D320R (Salmonella, UniProt Q56026 101-343, D320R)
T6 sequence: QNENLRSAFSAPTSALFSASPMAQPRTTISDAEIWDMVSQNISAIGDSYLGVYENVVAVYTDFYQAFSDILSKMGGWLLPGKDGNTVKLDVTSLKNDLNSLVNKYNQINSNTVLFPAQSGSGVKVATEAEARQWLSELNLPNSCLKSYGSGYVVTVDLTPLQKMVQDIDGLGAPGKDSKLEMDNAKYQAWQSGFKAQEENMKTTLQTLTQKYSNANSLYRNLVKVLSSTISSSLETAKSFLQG

B1: PrgI V65A/V67A/L31C labelled with Alexa Fluor 488-C5-maleimide (natural protein)
chain: MATPWSGYLDDVSAKFDTGVDNLQTQVTEACDKLAAKPSDPALLAAYQSKLSEYNLYRNAQSNTAKAFKDIDAAIIQNFR
modifications: Alexa Fluor 488-C5-maleimide on the cysteine of L31C
With B1 the Kd [1] was 108 ± 10 µM, the binding result (SipD^t V157K) was “binds” and the binding result (SipD^t S313E) was “binds”. For the same binder, the Kd (SipD^t S148E) was 189 ± 20 µM, the binding result (SipD^t V323K) was “binds” and the binding result (SipD^t D320R) was “binds”.
